Results on one molecule are retold here after patent US20250215071A1, “Novel Mcl-1 inhibitor and combination of Mcl-1 and a BH3 mimetic, such as a Bcl-2 inhibitor” (NETRIS PHARMA, priority 2022, published 2025).

The test system of one experiment is Mcl-1. In words: Mcl-1 immunohistochemistry on paired biopsies of phase I trial patients (NCT02977195). The class given is in vivo, human. As for the experimental part: (§1) FIG. 7. Netrin-1 interference triggers Mcl-1 degradation in vitro and in vivo. (A,B): Netrin-1 silencing triggers Mcl-1 degradation. Breast cancer MCF7 cells were transfected with scramble (siCTRL) or netrin-1 (siNet) targeting siRNAs. 48 hours after transfection, cells were lysed by scraping and sonication in SDS-containing buffer. Protein levels of Mcl-1, netrin-1, and UNC5B, as well as B-actin and Ku80, used as housekeeping genes, were evaluated by western blot (A). Relative Mcl-1 protein levels, normalized to β-actin or Ku80, are shown in (B) (n=2, *** p<0.001, **** p<0.0001, ordinary two-way ANOVA with Sidak's multiple comparisons test). Activation of endogenous UNC5B upon netrin-1 silencing decreased Mcl-1 protein levels. Values are given as means±SEM. (C,D): Netrin-1 interference degrades Mcl-1 in a syngeneic breast cancer model. Stable EMT6 cells, constitutively over-expressing human Mcl-1, were engrafted in BALB/c mice. Once tumors reached a volume of 100 mm^3, mice were treated with Iso-mAb or NP137 antibodies and sacrificed 8 hours after treatment. Protein levels of Mcl-1 were then evaluated by western blot (C). […] Mcl-1 protein was quantified in paraffin-embedded slices on paired C1D1 and C3D1 biopsies and compared with clinical benefit (stable disease, SD, or progression disease, PD, at 6 weeks). Mcl-1 intensity was assessed in all, PD or SD biopsies (E) (n=6, Wilcoxon test). […]
The NP137 antibody is currently being assessed in several phase I and II clinical trials, in patients with advanced solid tumours. […] Mcl-1 presence was thus analysed by immunohistochemistry.
For histological examination of tumours engrafted in nude mice, ex vivo breast cancer slices, and from human clinical trial, tumours were fixed in 10% buffered formalin and embedded in paraffin. […] Quantification of caspase-3- and Mcl-1-positive cells was performed with HALO software and adapted algorithms cytonuclear v2.0.8 6 (Indica Labs, Albuquerque, NM, USA). MCL1 intensity, has been calculated in percentage over the surface of tumour cells. […]

For another experiment, the system named is human Mcl-1. In words: In vivo Mcl-1 degradation in EMT6 syngeneic breast cancer model (western blot). The settings on record: EMT6 cells over-expressing human Mcl-1 in BALB/c mice; 20 mg/Kg i.v.; 8 hours after treatment; vs control mice (Iso-mAb). Here is the method: as §1, with “Activation of endogenous UNC5B upon netrin-1 silencing decreased Mcl-1 protein levels. Values are given as means±SEM. (C,D): Netrin-1 interference degrades Mcl-1 in a syngeneic breast cancer model. Stable EMT6 cells, constitutively over-expressing human Mcl-1, were engrafted in BALB/c mice. Once tumors reached a volume of 100 mm^3, mice were treated with Iso-mAb or NP137 antibodies and sacrificed 8 hours after treatment.” left out
For immunoblotting analysis, cells were lysed by sonication in SDS buffer (10 mM Tris-HCl pH 7.4, 10% glycerol, 5% SDS, 1% TX-100, 100 mM DTT) in the presence of protease inhibitor cocktail (Roche Applied Science). […] Protein band quantification was performed with Image Lab 6.1 software (Bio-rad), considering the adjusted volume intensity normalized with housekeeping genes. […]

B1: NP137: humanized anti-netrin-1 monoclonal antibody, VH SEQ ID NO: 22, VL SEQ ID NO: 16, human IgG1 (antibody, V domains shown)
VH: QVQLQQSGPGLVKPSQTLSLTCAISGYTFTSYNMHWVRQATGQGLEWMGAIYPGNGDTSYNQKFKGRLTISKDTSKNQVVLTMTNMDPVDTATYYCARGGTGFAYWGQG
VL: DIQMTQSPSSLSASVGDRVTITCKASQSVSNDVAWYQQKPGQAPRLLIYYASNRYTGIPPRFSGSGYGTDFTLTINNIESEDAAYYFCQQDYSSPWTFGQG
modifications: human IgG1 constant region; humanized variant; MISC_FEATURE - CDR according to IGMT
Regarding B1, the “patient tumours with reduced Mcl-1 levels” value in the experiment on Mcl-1 (all twelve patients, 14 mg/kg once every two weeks, C3D1 vs C1D1 biopsies) was “nine out of the twelve”. In addition, the figures for the “patients with Mcl-1 decrease” value with Mcl-1 (six patients with progression disease (PD) at 6 weeks) and with Mcl-1 (six patients with stable disease (SD) at 6 weeks) were “three of the six” and “six patients with SD showed Mcl-1 decrease”, respectively. The “Mcl-1 protein levels in tumors” value in the experiment on human Mcl-1 is listed as “significantly reduced Mcl-1 protein levels”.
